How the values were obtained:
[1] = target: P113 N-terminal fragment D106K E107K mutant, biotinylated bait (Plasmodium falciparum (3D7 strain)) (UniProt Q8ILP3); experiment: SPR; […]; Biacore 8K, 37°C, HBS-EP
[2] = target: P113 (Plasmodium falciparum) (UniProt Q8ILP3); conditions: cited from earlier work

Row | Substance | fold reduction in dissociation half-life against wild type [1] [fold] | Kd [2] [nM]
1 | RH5, purified monomeric protein (from UniProt Q8IFM5 25-526) (ligand) | 2 | 
2 | RH5 (from UniProt Q8IFM5) |  | 300
